In assay [1] the target is T1, AAV2 (adeno-associated virus serotype 2, UniProt P03135 1-735).
T1 construct: also called adeno-associated virus serotype 2
The experiment in a line: SPR, AAV on CM5 chip. For orientation: SPR reads the build-up and loss of mass on a sensor chip optically.
Description: (§1) AAV was amine-coupled to a CM5 sensor chip at a density of 500-800 response units (RU). Nanobodies were injected at seven concentrations (1-100 nM) with a flow rate of 45 μL/min, and chip regeneration was performed using glycine-HCl (pH 1.5). Binding curves at different nanobody concentrations were used to calculate kinetic parameters (Kₐ, Kd, KD) (Table 2 and FIG. 2).

The target in assay [2] is T2, AAV5 (adeno-associated virus serotype 5).
T2 construct: also called adeno-associated virus serotype 5
Description: SPR, AAV on CM5 chip.
Description: as §1

For assay [3], the target named is T3, AAV8 (adeno-associated virus serotype 8).
T3 construct: also called adeno-associated virus serotype 8
Description: SPR, AAV on CM5 chip.
Description: as §1

In assay [4] the target is T4, AAV9 (adeno-associated virus serotype 9).
T4 construct: also called adeno-associated virus serotype 9
Description: SPR, AAV on CM5 chip.
Description: as §1

Assay [5] has as its target T1, AAV2. Description: SPR, AAV on CM5 chip. This is another data set of the same source.
Assay [6] deals with T2, AAV5. The experiment in a line: SPR, AAV on CM5 chip. The source holds these as a separate data set.
Assay [7] deals with T3, AAV8. The experiment in a line: SPR, AAV on CM5 chip. This is another data set of the same source.
Assay [8] deals with T4, AAV9. The experiment in a line: SPR, AAV on CM5 chip. This is another data set of the same source.
The target in assay [9] is T1, AAV2. The experiment in a line: SPR, AAV on CM5 chip. This is another data set of the same source.
In assay [10] the target is T2, AAV5. The experiment in a line: SPR, AAV on CM5 chip. This is another data set of the same source.
The target in assay [11] is T3, AAV8. Description: SPR, AAV on CM5 chip. This is another data set of the same source.
Assay [12] addresses T4, AAV9. Description: SPR, AAV on CM5 chip. The source holds these as a separate data set.
Assay [13] deals with T5, AAV9 (adeno-associated virus serotype 9 (AAV9)).
T5 construct: also called adeno-associated virus serotype 9; AAV9 antigen
The experiment in a line: 1 mL column of A4-002 coupled to agarose gel (11.58 mg/g gel); AAV capsid particles bound.

Assay [14] concerns the target T6, AAV6 (adeno-associated virus serotype 6 (AAV6)).
T6 construct: also called adeno-associated virus serotype 6
The description is as above.

For assay [15], the target named is T7, AAV8 (adeno-associated virus serotype 8 (AAV8)).
T7 construct: also called adeno-associated virus serotype 8; AAV8 antigen
The assay is described as above.

Assay [16] addresses T8, AAV5 (adeno-associated virus serotype 5 (AAV5)).
T8 construct: also called adeno-associated virus serotype 5; AAV5 antigen
Described as above.

In assay [17] the target is T5, AAV9. The experiment in a line: 1 mL column of A4-008 coupled to agarose gel (10.74 mg/g gel); AAV capsid particles bound.
In assay [18] the target is T6, AAV6. Described as above.
Assay [19] concerns the target T7, AAV8. The assay is described as above.
Assay [20] concerns the target T8, AAV5. The description is as above.
Assay [21] concerns the target T5, AAV9. Description: 1 mL column of A4-008 coupled to agarose gel (9.77 mg/g gel); AAV capsid particles bound.
The target of assay [22] is T6, AAV6. Described as above.
In assay [23] the target is T7, AAV8. Described as above.
The target of assay [24] is T8, AAV5. The description is as above.
The target in assay [25] is T5, AAV9. Description: 1 mL column of A4-014 coupled to agarose gel (3.12 mg/g gel); AAV capsid particles bound.
Assay [26] has as its target T6, AAV6. Described as above.
Assay [27] addresses T7, AAV8. Described as above.
The target of assay [28] is T8, AAV5. The assay is described as above.

Read-outs that look alike come from different tables or passages of the source.

B1: A4-114 (VHH)
VHH: VQLQESGGGLVQTGGSLRLSCVASGSIFSINTVGWYRQAPGKQRELVATVTRAGSTWYAGSVKGRFTISRDNTKNTIYLQMNSLRPEDTAVYYCHVDELRQSTWTTSNLWGQGTQVTVSS
On to B1, for which the dissociation constant Kd in [1] was found to be 1.95 nM; in assay [2], 7.11 nM; in assay [3], 1.81 nM; in [4] it was 472 nM. Moreover, the koff came out at 0.00022 s⁻¹ in [1], 0.0011 s⁻¹ in [2], 0.00017 s⁻¹ in assay [3] and 0.00123 s⁻¹ in [4]. Moreover, the kon was 113000 M⁻¹ s⁻¹ in [1], 155000 M⁻¹ s⁻¹ in assay [2], 94000 M⁻¹ s⁻¹ in [3] and 2610 M⁻¹ s⁻¹ in assay [4].

B2: A4-H1 (VHH)
VHH: VQLVESGGGLVQPGGSLRLSCAASGRSFSINTMGWFRQAPGKGLEAVAIVTRGGSTYYADSVKGRFTISRDNSKNTLYLQMNSLRAEDTAVYYCHIDEVRQSSWTTSNIWGQGTLVTVSS
With B2, the Kd in assay [5] came out at 8.51 nM; in [6], 8.76 nM; in [7] it was 6.82 nM; in [8] it was 127 nM. In addition, the off-rate (koff) in assay [5] was 0.00139 s⁻¹; in assay [6], 0.00153 s⁻¹; in assay [7], 0.00135 s⁻¹; in [8], 0.00069 s⁻¹. In addition, the kon in assay [5] came to 163000 M⁻¹ s⁻¹; in assay [6], 175000 M⁻¹ s⁻¹; in assay [7], 198000 M⁻¹ s⁻¹; in [8], 5420 M⁻¹ s⁻¹.

B3: A4-H4 (VHH)
VHH: VQLVESGGGLVQPGGSLRLSCAASGSIFSINLMGWFRQAPGKGLELVAIITPGGNTYYADSVKGRFTISRDNSKNTVYLQMNSLRAEDTAVYYCHVDEVRQSSWTTSNLWGQGTLVTVSS
On to B3, for which the Kd in assay [5] is 17.2 nM; in [6], 2.86 nM; in assay [7] it was 9.44 nM; in [8] it was 5.91 nM. The koff in assay [5] was determined as 0.0017 s⁻¹; in assay [6], 0.00032 s⁻¹; in assay [7] it was 0.00125 s⁻¹; in assay [8], 0.00078 s⁻¹. Further, the kon in [5] is 99000 M⁻¹ s⁻¹; in [6], 112000 M⁻¹ s⁻¹; in [7] it was 132000 M⁻¹ s⁻¹; in [8], 132000 M⁻¹ s⁻¹.

B4: A4-H6 (VHH)
VHH: VQLVESGGGLVQPGGSLRLSCAASGRGFSINTMGWFRQAPGKGRELVAIVTRGGTTYYADSVKGRFTISRDNSKNTVYLQMNSLRAEDTAVYYCHVDEVRQSSWTTSNLWGQGTLVTVSS
On to B4, for which the Kd in [5] stood at 746 nM; in assay [6], 746 nM; in [7], 344 nM; in assay [8], 1160 nM. In addition, the koff worked out at 0.00565 s⁻¹ in [5], 0.00565 s⁻¹ in assay [6], 0.00164 s⁻¹ in assay [7] and 0.00177 s⁻¹ in assay [8]. In addition, the kon is 7570 M⁻¹ s⁻¹ in assay [5], 7570 M⁻¹ s⁻¹ in [6], 4760 M⁻¹ s⁻¹ in [7] and 1530 M⁻¹ s⁻¹ in [8].

B5: A4-B3 (VHH)
chain: VQLVESGGGLVQPGGSLRLSCAASGRSFSINTMGWFRQAPGKGLEAVAIVTRGGSTYYADSVKGRFTISRDNSKNTLYLQMNSLRAEDTAVYYCHIDEVRQSSWTTSNIWGQGTLVTVSSGGGGSGGGGSGGGGSVQLVESGGGLVQPGGSLRLSCAASGRSFSINTMGWFRQAPGKGLEAVAIVTRGGSTYYADSVKGRFTISRDNSKNTLYLQMNSLRAEDTAVYYCHIDEVRQSSWTTSNIWGQGTLVTVSS
Regarding B5, the equilibrium dissociation constant (Kd) is 0.245 nM in assay [9], 0.556 nM in assay [10], 0.835 nM in [11] and 20.3 nM in assay [12]. Further, the koff in assay [9] worked out at 2e-05 s⁻¹; in assay [10] it was 0.0001 s⁻¹; in assay [11] it was 8e-05 s⁻¹; in [12] it was 0.00095 s⁻¹. Moreover, the kon in assay [9] is 81600 M⁻¹ s⁻¹; in assay [10], 180000 M⁻¹ s⁻¹; in assay [11] it was 95800 M⁻¹ s⁻¹; in assay [12], 46800 M⁻¹ s⁻¹.

B6: A4-B4 (bispecific antibody)
chain: VQLVESGGGLVQPGGSLRLSCAASGRSFSINTMGWFRQAPGKGLEAVAIVTRGGSTYYADSVKGRFTISRDNSKNTLYLQMNSLRAEDTAVYYCHIDEVRQSSWTTSNIWGQGTLVTVSSGGGGSGGGGSGGGGSVQLVESGGGLVQPGGSLRLSCAASGSIFSINLMGWFRQAPGKGLELVAIITPGGNTYYADSVKGRFTISRDNSKNTVYLQMNSLRAEDTAVYYCHVDEVRQSSWTTSNLWGQGTLVTVSS
As to B6, the Kd was 0.835 nM in assay [9], 0.872 nM in [10], 0.332 nM in [11] and 5.26 nM in assay [12]. Besides, the dissociation rate constant (koff) in [9] was 8e-05 s⁻¹; in assay [10] it was 0.00016 s⁻¹; in [11], 5e-05 s⁻¹; in assay [12], 0.00063 s⁻¹. Also, the kon in [9] was 95800 M⁻¹ s⁻¹; in [10], 184000 M⁻¹ s⁻¹; in assay [11] it was 151000 M⁻¹ s⁻¹; in [12], 120000 M⁻¹ s⁻¹.

B7: A4-002 (VHH)
VHH: VQLQESGGGLVQPGGSLRLSCAASGRSFSINTMGWYRQAPGKQRELVAAVTRGGSTNYAGSVKGRFTISRDNAKNTVYLQMNSLRPEDTAVYYCHIDEVRQSSWTTSNIWGQGTQVTVSS
Turning to B7, the binding capacity in [13] came out at 1.26e+14 VP; in assay [14], 9.2e+13 VP; in assay [15], 1.02e+14 VP; in [16], 1.17e+14 VP.

B8: A4-008 (VHH)
VHH: VQLQESGGGLVQAGGSLRLSCAASGRAFSINTMGWYRQAPPKQRELVATVTRGGSTNYAGSVKGRFTISRDNAKNTIYLQMNSLRPEDTAVYYCHVDEVRQSSWTTSNIWGQGTQVTVSS
Regarding B8, the binding capacity in assay [17] came to 9.17e+13 VP; in assay [18], 9.43e+13 VP; in [19], 1.16e+14 VP; in [20], 8.95e+13 VP; in assay [21], 8.83e+13 VP; in assay [22], 8.78e+13 VP. Moreover, the binding capacity in assay [23] worked out at 9.47e+13 VP; in [24] it was 8.56e+13 VP.

B9: A4-014 (VHH)
VHH: VQLQESGGGLVQPGGSLRLSCAASGSRFSINSMGWYRQAPGKQRELVATVTRGGNTNYAGSVKGRFTISRDNAKNTVYLQMNSLRPEDTAVYYCHVDEVRESSWTTSNLWGQGTQVTVSS
B9: the binding capacity in assay [25] was determined as 4.3e+13 VP; in [26], 2.59e+13 VP; in [27] it was 3.83e+13 VP; in assay [28] it was 3.22e+13 VP.

A word on the Kd: it is the constant that tells how readily two partners part at equilibrium. By koff is commonly meant a measure of how fast the partners let go of each other. Higher therefore signals fast dissociation. The kon is a measure of how fast the partners come together. Higher therefore signals fast association.

Source of the values: patent US20260193326A1 (published 2026).
